# According to patent publication US20030157712A1, “Methods for determining cell responses through EphB receptors” (priority 1997, published 2003):
# T1: EphB2 (Homo sapiens, UniProt P29323)
# T1 construct: EphB2 receptor immunoprecipitates (from HRMEC); endogenous in cells; host or cells: HRMEC
# T1 sequence (P29323 19-1055): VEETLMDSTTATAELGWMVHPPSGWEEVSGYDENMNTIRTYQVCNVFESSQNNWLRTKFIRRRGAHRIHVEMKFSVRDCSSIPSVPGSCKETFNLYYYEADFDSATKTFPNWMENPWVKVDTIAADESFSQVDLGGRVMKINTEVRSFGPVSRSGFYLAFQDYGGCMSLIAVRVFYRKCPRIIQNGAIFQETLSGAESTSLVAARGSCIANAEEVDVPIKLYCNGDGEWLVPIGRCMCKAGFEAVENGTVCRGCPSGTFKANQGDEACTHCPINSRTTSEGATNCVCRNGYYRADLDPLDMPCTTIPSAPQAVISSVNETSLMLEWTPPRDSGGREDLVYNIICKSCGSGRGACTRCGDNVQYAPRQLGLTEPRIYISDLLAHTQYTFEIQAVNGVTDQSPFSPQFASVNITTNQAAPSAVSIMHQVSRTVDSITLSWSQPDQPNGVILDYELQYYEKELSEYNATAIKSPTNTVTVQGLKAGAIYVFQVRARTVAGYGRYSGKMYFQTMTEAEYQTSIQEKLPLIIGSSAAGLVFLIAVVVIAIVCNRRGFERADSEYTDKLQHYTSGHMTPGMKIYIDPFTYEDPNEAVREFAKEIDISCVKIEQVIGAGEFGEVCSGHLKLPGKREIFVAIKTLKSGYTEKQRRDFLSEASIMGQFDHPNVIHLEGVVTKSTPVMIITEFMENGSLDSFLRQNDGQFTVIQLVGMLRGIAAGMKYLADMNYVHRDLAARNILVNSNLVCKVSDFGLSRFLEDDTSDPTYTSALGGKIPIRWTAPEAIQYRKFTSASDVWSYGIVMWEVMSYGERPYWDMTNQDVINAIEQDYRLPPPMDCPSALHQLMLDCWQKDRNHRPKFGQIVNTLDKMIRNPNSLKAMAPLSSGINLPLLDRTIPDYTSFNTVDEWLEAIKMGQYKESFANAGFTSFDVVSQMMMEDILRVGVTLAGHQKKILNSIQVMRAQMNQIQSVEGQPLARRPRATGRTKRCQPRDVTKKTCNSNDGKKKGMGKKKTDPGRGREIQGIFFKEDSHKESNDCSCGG
# Legend:
# [1] = tested on: human renal microvascular endothelial cells; test: Solid phase cell attachment assay (HRMEC); assay type: cell-based
# Protocol: Solid phase cell attachment assays. Forty-eight-well plates (Falcon) were coated with a layer of nitrocellulose (Schleicher & Schuell) and allowed to air dry as described (47). Coated wells were incubated overnight at 4° C. with PBS containing matrix proteins at the indicated concentrations alone (no addition, NA) or in combination with dimeric EphrinB1/Fc. Two hours prior to assay, wells were washed twice then blocked at 37° C. with 1% BSA. Serum starved cells were harvested in 2 mM EDTA in PBS (HEK293) or recovered by trypsinization (HRMEC), washed twice in serum free medium containing 1% BSA, then plated at a density of 0.7-1×10^5 cells per well. After incubation at 37° C. for 1 hour (or as specified), unattached cells were dislodged by 5 brisk slaps of the plate on a horizontal surface. Wells were gently washed with PBS until cells were not adherent to albumin-coated wells. Adherent cells were fixed with 2% glutaraldehyde, stained with 0.5% crystal violet (in EtOH), and quantified by OD reading at 570 nm. In experiments using competitive peptides or blocking antibodies, cells were preincubated with the indicated peptides (100 μM) or antibodies (10 μg/ml) for 15 min at RT before plating. Results representative of three independent experiments are given as OD values and represent the mean of duplicate or triplicate wells±SEM.
# To determine if this ephrin-B1 surface density effect was mediated through integrins, a defined RGD peptide, GRGDSPK (SEQ ID NO:3), was applied to the surfaces in the absence and presence of ephrin-B1/Fc, or IgG1. Attachment assays of serum-starved microvascular endothelial cells to GRGDSPK (SEQ ID NO:3)-coated 48-well-plates were performed as described herein. Cells were preincubated for 15 min at 22° C. with blocking peptides (100 uM) or anti-integrin antibodies (10 ug/ml) before plating. Similar results were obtained using fibrinogen (1 ug/cm^2). HEK293 cells were transiently transfected with pSRα-EphB1 and attachment assays were performed after 48 hours as described herein.
# P19 cells = test: P19 attachment to nitrocellulose coated surfaces preadsorbed with ligand and fibronectin; assay type: cell-based, murine; conditions: 500 ng/well ligand with fibronectin 500 ng/well on nitrocellulose, 90 min at 37° C.
# Protocol: Specifically, nitrocellulose coated surfaces were preadsorbed with 500 ng/well of non-denatured ephrin-B1/Fc, either as dimer (LERK-2/Fc) or preclustered multimer (LERK2/FC+anti-Fc) or control protein (anti-Fc, BSA), with fibronectin (500 ng/well). P19 cells were plated and the % attached cells were assayed after a 90 min incubation at 37° C.
# EphB2 = biological target: T1, EphB2; test: EphB2 immunoprecipitation and phosphotyrosine immunoblot; assay type: cell-based; conditions: HRMEC; Fc fusion proteins 500 ng ml^−1
# Protocol: Ligand stimulation and immunoprecipitation of endogenous EphB receptors. Primary HRMEC were used at passages 3-6, as described (12). P19 cells were cultured as recommended (ATCC, Rockville, Md.). Ninety min prior to ligand stimulation, cells (2×10^5cells/60 mm dish) were plated on Matrigel-(Collaborative Biomedical Products, Becton Dickinson, Bedford, Mass., as recommended) or fibronectin-coated (29) dishes. Ligand (ephrin-B1/Fc) or control (ORF/Fc) (30) multimers were generated by preincubation with anti-Fc at a fixed ratio of 0.1× the indicated concentrations of Fc fusion proteins [50 ng ml^−1 anti-Fc for 500 ng ml^−1 Fc fusion protein]. If not otherwise indicated, Fc fusion proteins (ephrinB1/Fc or ORF/Fc) were used at 500 ng ml^−1 in the absence or presence of preclustering anti-Fc at 50 ng ml^−1. Cells were incubated with agonists at 37° C. for 10 min, or as described in the figure legends. Immunoprecipitations were conducted on either cell lysates (P19) or on Triticum vulgaris lectin affinity purified fractions of HRMEC (15) (needed to reduce the background from Matrigel). Precipitated proteins were analyzed by immunoblot (15).
# EphB1 and EphB2 immunoprecipitates from HRMEC stimulated with dimeric or multimeric (+anti-Fc) ephrin-B1/Fc were analyzed for receptor activation (anti-PY), and coprecipitation of heteromeric receptors (anti-EphB1, or anti-EphB2). […]
# [2] = fibrinogen-coated nitrocellulose surfaces
molecule,measurement,setting,value
"ephrin-B1/Fc dimers: disulfide-linked immunoglobulin Fc fusion form of ephrin-B1 (protein, left off: a dimerising Fc or GST) LAKNLEPVSWSSLNPKFLSGKGLVIYPKIGDKLDIICPRAEAGRPYEYYKLYLVRPEQAAACSTVLDPNVLVTCNRPEQEIRFTIKFQEFSPNYMGLEFKKHHDYYITSTSNGSLEGLENREGGVCRTRTMKIIMKVGQDPNAVTPEQLTTSRPSKEADNTVKMATQAPGSRGSLGDSDGKHETVNQEEKSGPGASGGSSGDPDGFFNSK","endothelial cell attachment, plates pre-coated using standard procedures","[1]; alone or in the presence of fibrinogen, no nitrocellulose",did not promote cell attachment
same,cell attachment at densities higher than 300 ng/cm^2,[1]; [2],sharp decline
same,coating density evoking maximal cell attachment,[1]; [2],300 ng/cm^2
same,"endothelial attachment, ligand adsorbed to nitrocellulose-coated surfaces","[1]; non-denaturing conditions, with fibrinogen, compared with Fc control human IgG1",promoted endothelial attachment
same,attachment of cells in preadsorbed wells,P19 cells,approximately 40%
same,tyrosine phosphorylation of EphB2,EphB2,stimulated
